# In the DeepSol protein solubility set:
# Experiment: soluble on expression in E. coli; label from the status in PepcDB or PDB records
row,Sequence,soluble on expression in E. coli
1,MGSSHHHHHHGKTIFVIVPTNEEQVAFLEALAKQDELNFDWQNPPTEPGQPVVILIPSDMVEWFLEMLKAKGIPFTVYVEEGGSENLYFQGGGGGGPKREEQMYMHIRKVYGDNIPEELLQRAKRQREAQDALTLTNMLRTPTPGQTSNALQNDLDPRALIELKSWNGH,soluble
2,MGSSHHHHHHGKTIFVIVPTNEEQVAFLEALAKQDELNFDWQNPPTEPGQPVVILIPSDMVEWFLEMLKAKGIPFTVYVEEGGSENLYFQGGGGGGVRYVQRPWFSPLGFMASSPTAYAPMMTCIALALIFPFRYQISEYFERQRDGVHVELRRKAVKYYAEMERMHRRQALVNLESIQDDNAPHRLSAVLSVESIQAGHLDQEYNYWYAHERDAIRAEKLMMEIRELKAKMPADSA,not soluble
3,MGSSHHHHHHGKTIFVIVPTNEEQVAFLEALAKQDELNFDWQNPPTEPGQPVVILIPSDMVEWFLEMLKAKGIPFTVYVEEGGSENLYFQGGGGGGYCAPTGRGADPKFYTPDAARKRDEQDKSYPVPKKLLKVRFLSDVGNTMPIAFVPLQREVEVLVGEPALAFYSAYNRSNRTLLGVSSYTIAPPEVTNYLNKIQCFCFEEQRFKPHELVEMPVFFYIDRDFLNDSMVNWLDEVIVNYTFFNLEKTKDYIFRPNAR,not soluble
4,MGSSHHHHHHMRVDGREKTELRHIHIHTNYLKHPEGSVLIEVGDTKVICSATIEERVPPFMRGEGKGWVTAEYAMIPRATEQRTIRESSKGKVTGRTMEIQRLIGRALRAVVDLEALGERTVWIDCDVIQADGGTRTASITGAYVAMVLAFEKLLQAEKVSKIPVKDYLAATSVGIVEEQGVVLDLNYAEDSKADVDMNVIMTGKGQFVEVQGTGEEATFSRAQLNELLDAAEQGIFQLIDIQKEALGDIVSHIE,soluble
5,MGSSHHHHHHSQDPMDYFNIKQNYYTGNFVQCLQEIEKFSKVTDNTLLFYKAKTLLALGQYQSQDPTSKLGKVLDLYVQFLDTKNIEELENLLKDKQNSPYELYLLATAQAILGDLDKSLETCVEGIDNDEAEGTTELLLLAIEVALLNNNVSTASTIFDNYTNAIEDTVSGDNEMILNLAESYIKFATNKETATSNFYYYEELSQTFPTWKTQLGLLNLHLQQRNIAEAQGIVELLLSDYYSVEQKENAVLYKPTFLANQITLALMQGLDTEDLTNQLVKLDHEHAFIKHHQEIDAKFDELVRKYDTSN,soluble
6,MGSSHHHHHHSSGLVPRGSHMASMDGKQGGMDGSKPAGPRDFPGIRLLSNPLMGDAVSDWSPMHEAAIHGHQLSLRNLISQGWAVNIITADHVSPLHEACLGGHLSCVKILLKHGAQVNGVTADWHTPLFNACVSGSWDCVNLLLQHGASVQPESDLASPIHEAARRGHVECVNSLIAYGGNIDHKISHLGTPLYLACENQQRACVKKLLESGADVNQGKGQDSPLHAVVRTASEELACLLMDFGADTQAKNAEGKRPVELVPPESPLAQLFLEREGASLPKPKP,soluble
7,MGSSHHHHHHSSGLVPRGSHMASNVKKFPEGFLWGVATASYQIEGSPLADGAGMSIWHTFSHTPGNVKNGDTGDVACDHYNRWKEDIEIIEKLGVKAYRFSISWPRILPEGTGRVNQKGLDFYNRIIDTLLEKGITPFVTIYHWDLPFALQLKGGWANREIADWFAEYSRVLFENFGDRVKNWITLNEPWVVAIVGHLYGVHAPGMRDIYVAFRAVHNLLRAHARAVKVFRETVKDGKIGIVFNNGYFEPASEKEEDIRAVRFMHQFNNYPLFLNPIYRGDYPELVLEFAREYLPENYKDDMSEIQEKIDFVGLNYYSGHLVKFDPDAPAKVSFVERDLPKTAMGWEIVPEGIYWILKKVKEEYNPPEVYITENGAAFDDVVSEDGRVHDQNRIDYLKAHIGQAWKAIQEGVPLKGYFVWSLLDNFEWAEGYSKRFGIVYVDYSTQKRIVKDSGYWYSNVVKNNGLED,soluble
8,MGSSHHHHHHSSGLVPRGSHMFLTRRDPPLSSFWTKVQYQRLKELNASGEQLEMGFSDALSRDRAFQGIEHQLMSQGKRHLEQLRTVKHRPALLELEEKLAKALHQQGFVQVVTPTIITKSALAKMTIGEDHPLFSQVFWLDGKKCLRPMLAPNLYTLWRELERLWDKPIRIFEIGTCYRKESQGAQHLNEFTMLNLTELGTPLEERHQRLEDMARWVLEAAGIREFELVTESSVVYGDTVDVMKGDLELASGAMGPHFLDEKWEIFDPWVGLGFGLERLLMIREGTQHVQSMARSLSYLDGVRLNIN,soluble
9,MGSSHHHHHHSSGLVPRGSHMMRKQRIVIKISGACLKQNDSSIIDFIKINDLAEQIEKISKKYIVSIVLGGGNIWRGSIAKELDMDRNLADNMGMMATIINGLALENALNHLNVNTIVLSAIKCDKLVHESSANNIKKAIEKEQVMIFVAGTGFPYFTTDSCAAIRAAETESSIILMGKNGVDGVYDSDPKINPNAQFYEHITFNMALTQNLKVMDATALALCQENNINLLVFNIDKPNAIVDVLEKKNKYTIVSK,soluble
10,MGSSHHHHHHSSGLVPRGSHMNESIVISLGGSVISGDPIDADYMKSFARILEASKYRRVGIVTGGGRTARSYISVLRKLNVNENVLDEIGIYATRMNALSMASLIPGSNPTIPFTVEDAVNLMNTYRFVVMGGTEPGHTTDTVAALLCERSATRTLINVTSVDGVYDMDPHRFANAKRFDRIGYREAIALSTKSSAGAGPNVFMDITALTIAMRSRIRVIVTSRDIDNLEKILKGDRAVSTFIDDDQRS,soluble
11,MGSSHHHHHHSSGLVPRGSHMTEIYTSVLSYRLLEGKAYSDADTRSLDRMMRSIDEFFSANPGYINFHIYRSYRTDSDVIFWYSSRNPDLMILAKERVQASMRPIAVSSFSSISIYDESPYNAMNKKLEDSLRLPPLRYFVAYPMSKTPDWYLLDFDTRKEIMHEHIKMALNHPDEKGIRSYTTYSFGIGDQEFVVLYEIPDIAAWSRVTEKLREARARKWIIKETPILLGRLVDAGDIAGFLL,soluble
12,MGSSHHHHHHSSGLVPRGSHMVASETLKTKKMEVQIKKNFPSVLQYTMTDGKVMYGQSKDVRTVEINGTNIELGDDDVTFKKVSDTEATYTLKVKDEAKKIDAVITVQITVKANQLHLNVTKIKNNLSEGIPEGNGVEENAIQTLSFPNQSLVSVRSSQENAQFTGARMSSNTQKPGDTNFAVTEDTNVTDSDYTYGFISGAGLSAGLWSNSEHDGTYVAAPVRGGSQNTRVYATTQQTGDATSLGLASAPWYYHRTVTDSKGKKYTVAETALPQMAVAIAGDENEDGAVNWQDGAIAYRDIMNNPYKSEEVPELVAWRIAMNFGSQAQNPFLTTLDNVKKVALNTDGLGQSVLLKGYGNEGHDSGHPDYGDIGQRLGGADDMNTMMEEGSKYGARFGVHVNASEMYPEAKAFSEDMVRRNSAGGLSYGWNWLDQGVGIDGIYDLASGSRVSRFADLSKEVGDNMDFIYLDVWGNLTSSGSEDSWETRKMSKMINDNGWRMTTEWGSGNEYDSTFQHWAADLTYGGYTSKGENSEVMRFLRNHQKDSWVGDYPQYGGAANAPLLGGYNMKDFEGWQGRNDYAAYIKNLYTHDVSTKFIQHFKVTRWVNNPLLTADNGNAAAVSDPNTNNGNEQITLKDSNGNVVVVSRGSNDTSSAAYRQRTITFNGVKVASGVVSAGDGSATGDESYLLPWMWDSFTGKLVKDSEQKLYHWNTKGGTTTWTLPDSWKNLSSVKVYQLTDQGKTNEQTVAVSGGKVTLTADAETPYVVYKGEAKQIQVNWSEGMHVVDAGFNGGSNTLTDNWTVSGSGKAEVEGDNNAMLRLTGKVDVSQRLTDLKAGQKYALYVGVDNRSTGDASVTVTSGGKVLATNSTGKSIAKNYIKAYGHNTNSNTENGSSYFQNMYVFFTAPENGDATVTLSHKSTDGAHTYFDDVRIVENQYSGITYEKDGTLKSLTNGFENNAQGIWPFVVSGSEGVEDNRIHLSELHAPFTRAGWDVKKMDDVLDGTWSVKVNGLTQKGTLVYQTIPQNVKFEAGAKYKVSFDYQSGSDDIYAIAVGQGEYSAGSVKLTNLKKALGETGKAEFELTGGVNGDSWFGIYSTATAPDLQGSTGNAQDFGGYKDFVLDNLKIERIESQTRTKAEAQDKVKEIRGKYDSKRAELSDAAWQQYQDTLVKARVLINKNGATAEDFTKAYDILVALDEYMKTAPGNESSDKYDVAADGSDELGGYTVATGSEEPTAGLPSEGPADLAQDGNDSTHWHTSWSENAVGNGTAWYQFNLNEPTTINGLRYLPRSGGMNANGKIKGYKITLTLADGTTKDVVTDAEFSTTTMWQKASFDAVENVTAVRLTVLSSAGQSDSQANKFASAAELRLTTDRE,soluble
